Results as given in the nanobody polyreactivity screen of Harvey et al. (2022).

Experiment: yeast display, Sf9 membrane polyspecificity reagent, FACS + sequencing; frameworks hold sequencing errors
Summary of the method: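 Genes from sorted yeast were amplified by colony PCR, read by MiSeq 2 × 250 sequencing and filtered on CDR length. These cells carried a synthetic nanobody library in Saccharomyces cerevisiae BJ5465 and were sorted by FACS into low and high (top ~1%) gates on anti-HA and streptavidin fluorescence. Polyreactivity is labelled according to the gate of origin.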

Sequence | polyreactivity (PSR sort gate)
QVQLVESGGGLVQAGGSLRLSCAASGRIFGVNAMGWYRQAPGKERELVAAINYSGGRTSYADSVKGRFTISRDNEKNTVYLQMKSLKPEDTAVYYCAKYGLRGGYLYYYWGQGTQVTVSS | high polyreactivity
QVQLVESGGGLVQAGGSLRLSCAASGNTFRWYDMGGYRQAPGKERELVAAITSSGSTTYYADSVKGRFTISRDNAKNTVYLQMNSLKPEDTAVYYCAAEDHYEGYGGYYWGHGTQVTVSS | low polyreactivity
QVQLVESGGGLVQAGGSLRLSCAASGSISGYYAMGWYRQAPGKERELVASIRYTGARTYYADSVKGRFTISRDNAKNTVYLQMNSLKPEDTAVYYCAADFKRDRVWGGDYWGQGTQVTVSS | low polyreactivity
QVQLVESGGGLVQAGGSLRLSSAASGRIFVNYAMGSSRQAPGKERELVAAITSDGSTSYADSVNGRFTISRDNAKNTVFLEMNSLKPEDTAVYYCAKGQRDREEYDYWGQGTQVTVSS | low polyreactivity
QVQLVESGGGLVQAGGSLRLSCAASGSIFTRYVMGWYRQAPGKERELVAAISGRGSSTYYADSVKGRFTISRDNAKNTVYLQMNSLKPEDTAVYYCAAEIVVFYSEGQRNTFYYWGQGTQVTVSS | high polyreactivity
QVQLVESGGGLVQAGGSLRLSCAASGFIFARYAMGWNRQAPGKERELVAAISTSGGSTYYADSVKGRFTISRDNAKNTVYLQMNSLNPEDTAVYYCNKLRLSRLVHPSGYYWGQGTQVTVSS | high polyreactivity
QVQLVESGGGLVQAGGSLRLSCAASGSIFFFNAMGWYRQAPGKEREMVAAISESGTSTYYADSVKGRFTISRDNAKNTVYLQMNSLKPEDTAVYYCNVVFRYAYGVYYTPEFYYWGQGTQVTVSS | low polyreactivity
QVQLVESGAGLVQAGGSLRISCAASGRTFFPNAMGWYRQAPGKERELFAAISSGGGGTYYADSVKGRFTISRDNAKNTVYLQMNSLKPEDTAVYYCAARNSKVEEDGNYWGQGTQVTVSS | low polyreactivity
QVQLQESGCGLVQAGGSLRLTCAASGSISYPRTMGWSRQAPGKEREFVAGIGVGGTTYYADSVIGRFTISRDNAKNTVYLQMNSLKPEDTAVYYCAVYSGDDYYHDYWGQGTQVTVSS | low polyreactivity
QVQLVESGGGLVEAGGSLRLSCAASGGTFLRYAMGWSIQAPGKERELVAAITYRNGRTYYADSVKGRFTISRDNAKNTVYLQMNSLKPEDTAVYYCAADSTPRGNPAYDYYYWGQGTQVTVSS | high polyreactivity
QVQLVESRGGLVQAGGSLRLSCAASGFTFRYYAMGWYRQAPGKERELVARITRCASTSYADSVKGRFTISRDNAKNTVYLLMISLIPEDTAVYYCAADSPAGGYVFPELPYDYWGQGTQVTVSS | low polyreactivity
QVQLVESGGGLVQAGGSLRLSCAASGFIFAYNAMGWYRQAPGKERELVAAISWSGGSTYYADSVKGRFTISRDNAKNTVFLQMNSLLPEDTAVYYCAARYRRNKYYYWGQGTQVTVSS | high polyreactivity
QVQLVESGGGLVQAGGSLRLSCAASGSIFATNAMGWYRQAPGKERELVASISSGGGSTYDADSVKGRFTLSRDNAKNTVYLQMNSLKPEDTAVYYCARRIGQGSRPYWLETWRYPYDYWGQGTQVTVSS | low polyreactivity
QVQVVESGGGFVQAGGSLSLSCAASGSTFPYYVMGCYREAPGKERELVAAISGSGTRTYYADSVKGRFTISRDNAKNTVYLQMNSLKPEDTAVYYCAARKYPQGFDYWGQGTQVTVSS | low polyreactivity
QVQLVESGGGLVQAGGSLRLSCAASGSIFPPYAMGWYRQAPGKERELVAAIDWGGSSTYYADSVKGRFTISRDNAKNTVYLQMNSLKPEDTAVYYCAAEVVHGYYLYEYWGQGTQVTVSS | high polyreactivity
QVQLVESGGGLVQAGGSLRLSCAASGYIFTYYAMGWYRQAPGKERELVAAISRGGSTYYADSVKGRFTISRDNAKYTVYLQMNSLKPEDTAVYYCNARPRWPWVVNFGYYYWGQGTQVTVSS | low polyreactivity

Sequence | polyreactivity (PSR sort gate)
QVQLVESGGGLVQAGGSLRLICAASGITFLQYARGWYRQATGKERELVAVISRGSRTYYADSVKGRFTISRDNAKNTFYLQMNSLKPEDTAVYYCAAVRGLAVGYDYWGQGTQVTVSS | high polyreactivity
QVQLVESGGGLVQAGGSLRLSCAASGRTFYVNTMRWYRQAPGKEREFVARITRGGSTYYADSVKGRFTISRDNAMNTVYLEMNSLKPEDTAFYYCGTDHFPVYSTHVIYEFDYWGQGTQVTVSS | low polyreactivity
QVQLVESCGGLVQAGGSHRLSCAASGSTFAYNDMGWYRQAPGKERELVADIRSGGNTNYADSVKGRFTISRDNAKNTVYLQMNSLKPEDTAVYYRATDGYRIDVYHPDYRYDYWGQGTQVTVSS | low polyreactivity
QVQLVESGGGLVQAGGSLRLSCAASGFTLIHYAMGWYRQATGKERELVAGITTSGGSTYYADSVKGRFTFSRDNAKNTVYLQMTSLKPEDTAVYYCNRLTRRWYSLRSYDYWGQGTQVTVSS | high polyreactivity
QVQLVESGGGLVQAGGSLRLSCAASGRTFRYYAMGWYRQAPGKERELVAAISSRGNTYYADSVKGRFTISRDNAKNTVYLQMNSLKPEDTAVYYCAAYVYRVQYDFDYWGQGTQVTVSS | high polyreactivity
QVQLVESGGGLFQAGGSLRLSCAASGFIFLVNAMGWYRPAPGKERELVAAISKSTGGTYYADSVKGRFTISRDNAKNTVYLQMYSLKPEDTAVYSCAADEVYPVQRDMDYWGQGTQETVSS | low polyreactivity
QVQLVESGGGLVQAGGSLRLSCAASGRTFRTYAMGWYRQAPGKERELVASISVGGGSTYYADSVKGRFTISRDNAKNTVYLQMNSLKPEDTAVYYCAVRSYSPRSRGMGYWGQGTQVTVSS | high polyreactivity
QVQLVESGGGFVQAGGSLRLSCAASGFTFVGYAMGWYRQAPGKERELVAAITRRGGSTYYADSVKGRFTISRDNAKNTVYLQMNSLKPEDTAVYYCNKASYRISVPRYDYWGQGTQVTVSS | high polyreactivity
QVHLVESGGGLVQAGGSLRLSCAASGFTFVRNAMGWYRQAPGKERELVAAISGSGGSTYYADSVKGRFTISRDTAKNTVYLQMNSLKPEDTAVYYCAAGWTRGWSLDYYYWGQGTQVTVSS | high polyreactivity
QVQLVESGGGLVQAGGSLRLSCAASGRTFRWYAMGWYRQAPGKERELVAAITSDGSTYYADSVKGRFTISRDNAKNTVYLQMNSLKPEDTAVYYCNAAGRYAFPFGYNYWGQGTQVTVSS | high polyreactivity
QVQLVESGGGLVQAGGSLRLSCAASGYTFSFYAMGWYRQAPGKERELVAAISSSDGTTYYADSEKGRFTISRDNAKNTVYLQMNSLKPEDTAVYYCNTRYVRQVVGTYTLKTRYYWGQGTQVTVSS | high polyreactivity
QVQLVESGGGLVQAGGSLRLSCAASGLNFSHYTMGWYRQAPGKERELVAAITSSGGSTYYADSVKGRFTISRDNGKNTVYLQMNSLKPVDTAVYYCNKALTSKDYPVRTVERDYWGQGTQVTVSS | low polyreactivity
QVQLVESGGGLVQAGGSLRLSCAASGLTFQLYTMGWYRQAPGKERELVAAISRSGTRTYYADSVKGRFTISRDNAKNTVYLQMNSLKPEDTAVYYCAARTDGYRNNYWGQGTQVTVSS | high polyreactivity
QVQLVESGGGLVQAGGSLRLSCAASGYTFSYANAMGWYRQAPGKERELVASISSTGGRTYYADSVKGRFTISRDNAKNTVYLQMNSLKPEDTAVYYCASRYWRYGYWGQGTQVTVSS | high polyreactivity
QVQIVESGGGLVQAGGSLPLSCDASGITFERYDMGWYRQAPGKERELGAAISTTGGRTYYADSVKGRFTISRDNAKNSVYLQMNSLKPEDTAVYYCAARYTTRRRYDYWGQGTQVTVSS | high polyreactivity
